{"source": "patent US20050032681A1", "about": "(TEMPLE UNIV OF THE COMMONWEALTH SYSTEM OF HIGHER EDUCATION …, published 2005)", "key": {"human α-thrombin": {"biological_target": "human α-thrombin (human, UniProt P00734 328-363; P00734 364-622)", "experiment": "pseudo-first-order thrombin inhibition kinetics, residual activity with S-2238, 25 C, polybrene", "method": "(§1) Forty μL aliquots of ATIII samples at varying concentrations (450 nM, 300 nM, 150 nM) in PNE-PEG plus 50 μL polybrene (to neutralize any contaminating heparin) were preloaded into quadruplicate wells of a low-binding 96-well assay plate (Corning). The plate was maintained at 25° C., and 20 μL aliquots of 30 nM human thrombin or 15 nM human factor Xa were added to each of the four wells at successive 5 minute intervals. Reactions were quenched 5 minutes after addition of enzyme to the last of the wells by the adding 100 μL of 1.5 mM chromogenic substrate (S-2238 for thrombin; S-2765 for factor Xa). Residual enzyme activity was measured on a BioTek ELS11X kinetic plate reader controlled by a Macintosh SE with Deltasoft software. Initial rates of chromogenic substrate cleavage were monitored at 405 nm."}, "Human Cathepsin G": {"biological_target": "T1, Human Cathepsin G (human, UniProt P08311 21-244)", "T1 sequence (looked up)": "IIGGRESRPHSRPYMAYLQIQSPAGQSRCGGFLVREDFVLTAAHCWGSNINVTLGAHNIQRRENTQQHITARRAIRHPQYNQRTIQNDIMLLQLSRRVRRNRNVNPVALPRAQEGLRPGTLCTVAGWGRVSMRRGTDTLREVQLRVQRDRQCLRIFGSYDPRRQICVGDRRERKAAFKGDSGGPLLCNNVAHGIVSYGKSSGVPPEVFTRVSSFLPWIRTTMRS", "experiment": "cell-based or functional assay"}, "[1]": {"biological_target": "T2, human neutrophil elastase (human, UniProt P08246 30-247, limits assumed)", "T2 sequence (looked up)": "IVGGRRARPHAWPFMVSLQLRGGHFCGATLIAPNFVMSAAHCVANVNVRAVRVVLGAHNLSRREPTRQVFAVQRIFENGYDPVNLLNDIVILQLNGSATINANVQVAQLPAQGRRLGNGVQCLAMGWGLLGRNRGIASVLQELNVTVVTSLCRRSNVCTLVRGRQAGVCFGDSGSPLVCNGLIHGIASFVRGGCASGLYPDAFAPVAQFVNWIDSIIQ", "experiment": "cell-based or functional assay"}, "human factor Xa": {"biological_target": "T3, human factor Xa (human, UniProt P00742 41-179; P00742 235-488, limits assumed)", "T3 construct": "that the active enzyme has two chains is from general knowledge", "T3 sequence (P00742 41-179 limits assumed, chain 1 of 2)": "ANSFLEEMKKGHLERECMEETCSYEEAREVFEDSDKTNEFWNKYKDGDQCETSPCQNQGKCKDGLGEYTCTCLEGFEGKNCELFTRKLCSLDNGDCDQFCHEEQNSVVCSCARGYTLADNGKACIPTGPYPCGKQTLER", "T3 sequence (P00742 235-488 limits assumed, chain 2 of 2)": "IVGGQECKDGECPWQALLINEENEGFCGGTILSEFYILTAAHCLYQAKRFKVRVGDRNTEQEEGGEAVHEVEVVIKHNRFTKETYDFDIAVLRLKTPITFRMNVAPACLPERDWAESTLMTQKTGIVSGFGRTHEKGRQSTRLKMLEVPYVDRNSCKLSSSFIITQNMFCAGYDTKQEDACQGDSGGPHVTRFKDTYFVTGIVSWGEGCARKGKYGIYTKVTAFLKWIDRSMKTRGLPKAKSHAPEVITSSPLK", "experiment": "pseudo-first-order factor Xa inhibition kinetics, residual activity with S-2765, 25 C, polybrene", "method": "as §1"}}, "data": [{"binder": "Bb modified ATIII (on human ATIII.N135A background) (other, Recombinant, baculovirus/Sf9, N135A background; also called AT.Bb; Bb mutant) HGSPVDICTAKPRDIPMNPMCIYRSPEKKATEDEGSEQKIPEATNRRVWELSKANSRFATTFYQHLADSKNDNDNIFLSPLSISTAFAMTKLGACNDTLQQLMEVFKFDTISEKTSDQIHFFFAKLNCRLYRKAAKSSKLVSANRLFGDKSLTFNETYQDISELVYGAKLQPLDFKENAEQSRAAINKWVSNKTEGRITDVIPSEAINELTVLVLVNTIYFKGLWKSKFSPENTRKELFYKADGESCSASMMYQEGKFRYRRVAEGTQVLELPFKGDDITMVLILPKPEKSLAKVEKELTPEVLQEWLDELEEMMLVVHMPRFRIEDGFSLKEQLQDMGLVDLFSPEKSKLPGIVAEGRDDLYVSDAFHKAFLEVNEEGSEAAASTEGFFSGRSLNPNRVTFKANRPFLVFIREVPLNTIIFMGRVANPCVK", "values": [{"measurement": "kapp (apparent second-order rate constant of association)", "setting": "human α-thrombin", "value": 3600, "unit": "M⁻¹ s⁻¹"}, {"measurement": "Cathepsin G resistance T1/2, min", "setting": "Human Cathepsin G", "value": 1.4, "unit": "min"}, {"measurement": "HNE resistance T1/2, min", "setting": "[1]", "value": 15.8, "unit": "min"}, {"measurement": "kapp (apparent second-order rate constant of association)", "setting": "human factor Xa", "value": 4500, "unit": "M⁻¹ s⁻¹"}]}, {"binder": "Bb.B modified ATIII (on human ATIII.N135A background) (other, Recombinant, baculovirus/Sf9, N135A background; also called AT.Bb.B) HGSPVDICTAKPRDIPMNPMCIYRSPEKKATEDEGSEQKIPEATNRRVWELSKANSRFATTFYQHLADSKNDNDNIFLSPLSISTAFAMTKLGACNDTLQQLMEVFKFDTISEKTSDQIHFFFAKLNCRLYRKAAKSSKLVSANRLFGDKSLTFNETYQDISELVYGAKLQPLDFKENAEQSRAAINKWVSNKTEGRITDVIPSEAINELTVLVLVNTIYFKGLWKSKFSPENTRKELFYKADGESCSASMMYQEGKFRYRRVAEGTQVLELPFKGDDITMVLILPKPEKSLAKVEKELTPEVLQEWLDELEEMMLVVHMPRFRIEDGFSLKEQLQDMGLVDLFSPEKSKLPGIVAEGRDDLYVSDAFHKAFLEVNEEGSEAAASTEGEGSGRSLNPNRVTFKANRPFLVFIREVPLNTIIFMGRVANPCVK", "values": [{"measurement": "Cathepsin G resistance T1/2, min", "setting": "Human Cathepsin G", "value": 16.2, "unit": "min"}, {"measurement": "HNE resistance T1/2, min", "setting": "[1]", "value": 44.8, "unit": "min"}, {"measurement": "kapp (apparent second-order rate constant of association)", "setting": "human factor Xa", "value": 700, "unit": "M⁻¹ s⁻¹"}]}, {"binder": "LEAI modified ATIII (on human ATIII.N135A background) (other, substitutions derived against S T A V V I A G R with the numbering of footnote c; also called AT3.LEAI) HGSPVDICTAKPRDIPMNPMCIYRSPEKKATEDEGSEQKIPEATNRRVWELSKANSRFATTFYQHLADSKNDNDNIFLSPLSISTAFAMTKLGACNDTLQQLMEVFKFDTISEKTSDQIHFFFAKLNCRLYRKAAKSSKLVSANRLFGDKSLTFNETYQDISELVYGAKLQPLDFKENAEQSRAAINKWVSNKTEGRITDVIPSEAINELTVLVLVNTIYFKGLWKSKFSPENTRKELFYKADGESCSASMMYQEGKFRYRRVAEGTQVLELPFKGDDITMVLILPKPEKSLAKVEKELTPEVLQEWLDELEEMMLVVHMPRFRIEDGFSLKEQLQDMGLVDLFSPEKSKLPGIVAEGRDDLYVSDAFHKAFLEVNEEGSEAAASTALEAIGRSLNPNRVTFKANRPFLVFIREVPLNTIIFMGRVANPCVK", "values": [{"measurement": "kapp (apparent second-order rate constant of association)", "setting": "human α-thrombin", "value": 3600, "unit": "M⁻¹ s⁻¹"}, {"measurement": "Cathepsin G resistance T1/2, min", "setting": "Human Cathepsin G", "value": 6.1, "unit": "min"}, {"measurement": "HNE resistance T1/2, min", "setting": "[1]", "value": 2.8, "unit": "min"}, {"measurement": "kapp (apparent second-order rate constant of association)", "setting": "human factor Xa", "value": 7000, "unit": "M⁻¹ s⁻¹"}]}, {"binder": "FF modified ATIII (on human ATIII.N135A background) (other, Recombinant, baculovirus/Sf9, N135A background; also called AT.FF) HGSPVDICTAKPRDIPMNPMCIYRSPEKKATEDEGSEQKIPEATNRRVWELSKANSRFATTFYQHLADSKNDNDNIFLSPLSISTAFAMTKLGACNDTLQQLMEVFKFDTISEKTSDQIHFFFAKLNCRLYRKAAKSSKLVSANRLFGDKSLTFNETYQDISELVYGAKLQPLDFKENAEQSRAAINKWVSNKTEGRITDVIPSEAINELTVLVLVNTIYFKGLWKSKFSPENTRKELFYKADGESCSASMMYQEGKFRYRRVAEGTQVLELPFKGDDITMVLILPKPEKSLAKVEKELTPEVLQEWLDELEEMMLVVHMPRFRIEDGFSLKEQLQDMGLVDLFSPEKSKLPGIVAEGRDDLYVSDAFHKAFLEVNEEGSEAAASTAVFFAGRSLNPNRVTFKANRPFLVFIREVPLNTIIFMGRVANPCVK", "values": [{"measurement": "kapp (apparent second-order rate constant of association)", "setting": "human α-thrombin", "value": 1400, "unit": "M⁻¹ s⁻¹"}, {"measurement": "HNE resistance T1/2, min", "setting": "[1]", "value": "< 2.5", "unit": "min"}, {"measurement": "kapp (apparent second-order rate constant of association)", "setting": "human factor Xa", "value": 3000, "unit": "M⁻¹ s⁻¹"}]}, {"binder": "Bb.A modified ATIII (on human ATIII.N135A background) (other, Recombinant, baculovirus/Sf9, N135A background; also called AT.Bb.A) HGSPVDICTAKPRDIPMNPMCIYRSPEKKATEDEGSEQKIPEATNRRVWELSKANSRFATTFYQHLADSKNDNDNIFLSPLSISTAFAMTKLGACNDTLQQLMEVFKFDTISEKTSDQIHFFFAKLNCRLYRKAAKSSKLVSANRLFGDKSLTFNETYQDISELVYGAKLQPLDFKENAEQSRAAINKWVSNKTEGRITDVIPSEAINELTVLVLVNTIYFKGLWKSKFSPENTRKELFYKADGESCSASMMYQEGKFRYRRVAEGTQVLELPFKGDDITMVLILPKPEKSLAKVEKELTPEVLQEWLDELEEMMLVVHMPRFRIEDGFSLKEQLQDMGLVDLFSPEKSKLPGIVAEGRDDLYVSDAFHKAFLEVNEEGSEAAASTEGEASGRSLNPNRVTFKANRPFLVFIREVPLNTIIFMGRVANPCVK", "values": [{"measurement": "kapp (apparent second-order rate constant of association)", "setting": "human α-thrombin", "value": 500, "unit": "M⁻¹ s⁻¹"}, {"measurement": "Cathepsin G resistance T1/2, min", "setting": "Human Cathepsin G", "value": "> 45", "unit": "min"}, {"measurement": "HNE resistance T1/2, min", "setting": "[1]", "value": 27.4, "unit": "min"}, {"measurement": "kapp (apparent second-order rate constant of association)", "setting": "human factor Xa", "value": 6200, "unit": "M⁻¹ s⁻¹"}]}]}
